Strand notation (5' to 3'): a small letter for the sugar, then the base; units joined by * are phosphorothioate-linked, units joined directly phosphodiester-linked; [ ] holds rarer units or linkages, { } end groups; capitals alone tell only the bases. m = 2'-O-methyl; r = 2'-OH (RNA)
B1: G000491: TTR sgRNA modified sequence, Human, SEQ ID No. 98; guide sequence of CR003338 (nucleic acid)
guide: mA*mU*mA*rCrCrArGrUrCrCrArGrCrArArGrGrCrArGrGrUrUrUrUrArGrAmGmCmUmAmGmAmAmAmUmAmGmCrArArGrUrUrArArArArUrArArGrGrCrUrArGrUrCrCrGrUrUrArUrCrAmAmCmUmUmGmAmAmAmAmAmGmUmGmGmCmAmCmCmGmAmGmUmCmGmGmUmGmCmU*mU*mU*mU
B2: G000485: TTR sgRNA modified sequence, Human, SEQ ID No. 92; guide sequence of CR003336 (nucleic acid)
guide: mC*mC*mU*rCrCrUrCrUrGrCrCrUrUrGrCrUrGrGrArCrGrUrUrUrUrArGrAmGmCmUmAmGmAmAmAmUmAmGmCrArArGrUrUrArArArArUrArArGrGrCrUrArGrUrCrCrGrUrUrArUrCrAmAmCmUmUmGmAmAmAmAmAmGmUmGmGmCmAmCmCmGmAmGmUmCmGmGmUmGmCmU*mU*mU*mU
B3: G000484: TTR sgRNA modified sequence, Human, SEQ ID No. 91; guide sequence of CR003367 (nucleic acid)
guide: mA*mG*mA*rCrArCrCrArArArUrCrUrUrArCrUrGrGrArGrUrUrUrUrArGrAmGmCmUmAmGmAmAmAmUmAmGmCrArArGrUrUrArArArArUrArArGrGrCrUrArGrUrCrCrGrUrUrArUrCrAmAmCmUmUmGmAmAmAmAmAmGmUmGmGmCmAmCmCmGmAmGmUmCmGmGmUmGmCmU*mU*mU*mU
B4: G000490: TTR sgRNA modified sequence, Human, SEQ ID No. 97; guide sequence of CR003366 (nucleic acid)
guide: mA*mA*mA*rUrArGrArCrArCrCrArArArUrCrUrUrArCrGrUrUrUrUrArGrAmGmCmUmAmGmAmAmAmUmAmGmCrArArGrUrUrArArArArUrArArGrGrCrUrArGrUrCrCrGrUrUrArUrCrAmAmCmUmUmGmAmAmAmAmAmGmUmGmGmCmAmCmCmGmAmGmUmCmGmGmUmGmCmU*mU*mU*mU
B5: G000492: TTR sgRNA modified sequence, Human, SEQ ID No. 99; guide sequence of CR003342 (nucleic acid)
guide: mC*mU*mU*rCrUrCrUrArCrArCrCrCrArGrGrGrCrArCrGrUrUrUrUrArGrAmGmCmUmAmGmAmAmAmUmAmGmCrArArGrUrUrArArArArUrArArGrGrCrUrArGrUrCrCrGrUrUrArUrCrAmAmCmUmUmGmAmAmAmAmAmGmUmGmGmCmAmCmCmGmAmGmUmCmGmGmUmGmCmU*mU*mU*mU
B6: G000493: TTR sgRNA modified sequence, Human, SEQ ID No. 100; guide sequence of CR003368 (nucleic acid)
guide: mA*mA*mG*rUrGrCrCrUrUrCrCrArGrUrArArGrArUrUrGrUrUrUrUrArGrAmGmCmUmAmGmAmAmAmUmAmGmCrArArGrUrUrArArArArUrArArGrGrCrUrArGrUrCrCrGrUrUrArUrCrAmAmCmUmUmGmAmAmAmAmAmGmUmGmGmCmAmCmCmGmAmGmUmCmGmGmUmGmCmU*mU*mU*mU
B7: G000483: TTR sgRNA modified sequence, Human, SEQ ID No. 90; guide sequence of CR005298 (nucleic acid)
guide: mU*mC*mC*rArCrUrCrArUrUrCrUrUrGrGrCrArGrGrArGrUrUrUrUrArGrAmGmCmUmAmGmAmAmAmUmAmGmCrArArGrUrUrArArArArUrArArGrGrCrUrArGrUrCrCrGrUrUrArUrCrAmAmCmUmUmGmAmAmAmAmAmGmUmGmGmCmAmCmCmGmAmGmUmCmGmGmUmGmCmU*mU*mU*mU
B8: G000487: TTR sgRNA modified sequence, Human, SEQ ID No. 94; guide sequence of CR003357 (nucleic acid)
guide: mU*mU*mC*rUrUrUrGrGrCrArArCrUrUrArCrCrCrArGrGrUrUrUrUrArGrAmGmCmUmAmGmAmAmAmUmAmGmCrArArGrUrUrArArArArUrArArGrGrCrUrArGrUrCrCrGrUrUrArUrCrAmAmCmUmUmGmAmAmAmAmAmGmUmGmGmCmAmCmCmGmAmGmUmCmGmGmUmGmCmU*mU*mU*mU

Test system: off-target genomic sites
Experiment: Off-target oligo insertion based assay in HEK293_Cas9 cells, dgRNAs and sgRNAs (Tables 23, 24)
Assay type: cell-based, human
Conditions: for # Sites (off-target integration sites detected): Table 24, TTR sgRNAs in HekCas9 cells, insertion detection method; for # Sites in HekCas9 cells (Example 5): Table 30, TTR sgRNAs, repeated from Example 5 for comparison
Method in brief: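 In HEK293 cells constitutively expressing Spy Cas9, crRNA (15 nM) plus trRNA (15 nM), or modified sgRNAs, were lipofected with donor oligo (10 nM). Genomic DNA was collected at 24 h, and oligo-insertion libraries were sequenced on MiSeq/HiSeq to map potential off-target cleavage sites.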

| Molecule | # Sites (off-target integration sites detected) | # Sites in HekCas9 cells (Example 5) |
| --- | --- | --- |
| B1 | 28 | 28 |
| B2 | 22 | 22 |
| B3 | 7 | 7 |
| B4 | 12 | 12 |
| B5 | 97 | 97 |
| B6 | 7 | 7 |
| B7 | 5 | 5 |
| B8 | 14 | 14 |

Source: patent US11795460B2, “Compositions and methods for TTR gene editing and treating ATTR amyloidosis” (Intellia Therapeutics, Inc., priority 2017, dated 2023)
